From patent US20260008852A1 (CRYSTAL BIOSCIENCE, published 2026)
Substitutions are numbered along the chain they refer to.

T1: His-tagged mouse B7-H3 (mouse, UniProt Q8VE98 29-244, limits assumed)
T1 construct: Bought His-tagged protein coated on the ELISA plate; also called mu B7-H3; murine B7-H3
T1 sequence (looked up): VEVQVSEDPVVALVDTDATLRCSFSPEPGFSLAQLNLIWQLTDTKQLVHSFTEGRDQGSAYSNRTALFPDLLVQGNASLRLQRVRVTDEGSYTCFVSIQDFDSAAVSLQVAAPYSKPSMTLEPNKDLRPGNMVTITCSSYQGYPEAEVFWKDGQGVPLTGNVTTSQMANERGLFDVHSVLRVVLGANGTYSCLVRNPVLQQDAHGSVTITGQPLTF

T2: His-tagged cynomolgus monkey B7-H3 (cynomolgus monkey)
T2 chain: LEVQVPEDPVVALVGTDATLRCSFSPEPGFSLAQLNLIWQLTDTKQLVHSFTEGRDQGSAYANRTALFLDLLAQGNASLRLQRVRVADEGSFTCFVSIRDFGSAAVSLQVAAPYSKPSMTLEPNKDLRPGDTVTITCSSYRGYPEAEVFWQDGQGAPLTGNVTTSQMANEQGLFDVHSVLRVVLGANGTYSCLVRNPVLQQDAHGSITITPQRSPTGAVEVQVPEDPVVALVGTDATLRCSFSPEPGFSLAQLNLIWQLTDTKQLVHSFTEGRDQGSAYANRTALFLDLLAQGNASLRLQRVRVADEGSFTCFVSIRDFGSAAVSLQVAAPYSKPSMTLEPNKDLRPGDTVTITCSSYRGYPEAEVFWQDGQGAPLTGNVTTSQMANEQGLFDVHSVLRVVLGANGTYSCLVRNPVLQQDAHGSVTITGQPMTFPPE

T3: His-tagged human B7-H3 (human, UniProt Q5ZPR3-2 29-245, limits assumed)
T3 construct: Bought His-tagged protein coated on the ELISA plate; also called hu B7-H3; CD276
T3 sequence (looked up): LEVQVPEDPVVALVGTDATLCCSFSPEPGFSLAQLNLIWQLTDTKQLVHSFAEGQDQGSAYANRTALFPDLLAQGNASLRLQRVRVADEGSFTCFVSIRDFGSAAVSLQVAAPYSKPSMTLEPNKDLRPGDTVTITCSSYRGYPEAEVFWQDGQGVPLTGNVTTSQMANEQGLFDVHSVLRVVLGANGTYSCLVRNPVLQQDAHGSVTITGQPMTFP

T4: B7-H3 on B7-H3-expressing CHO cells (Genescript) (UniProt Q5ZPR3 29-534, limits assumed)
T4 construct: whole, on cells; also called CHO-K1/B7-H3; MFI B7-H3
T4 sequence (looked up): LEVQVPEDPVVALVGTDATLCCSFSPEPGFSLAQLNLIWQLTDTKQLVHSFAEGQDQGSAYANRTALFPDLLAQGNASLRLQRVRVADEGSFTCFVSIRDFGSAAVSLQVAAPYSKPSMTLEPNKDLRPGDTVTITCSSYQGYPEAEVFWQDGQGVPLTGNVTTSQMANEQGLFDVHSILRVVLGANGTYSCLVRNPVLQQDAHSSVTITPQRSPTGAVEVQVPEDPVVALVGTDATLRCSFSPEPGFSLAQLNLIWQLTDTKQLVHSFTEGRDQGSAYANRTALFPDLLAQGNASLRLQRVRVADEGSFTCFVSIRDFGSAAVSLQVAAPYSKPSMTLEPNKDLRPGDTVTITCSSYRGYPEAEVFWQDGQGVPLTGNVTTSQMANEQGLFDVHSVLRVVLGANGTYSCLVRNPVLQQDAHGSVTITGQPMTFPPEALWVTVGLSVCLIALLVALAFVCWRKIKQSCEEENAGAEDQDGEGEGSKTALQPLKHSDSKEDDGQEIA

B1: 40511p1.2.A8 (scFv, V domains shown)
VH: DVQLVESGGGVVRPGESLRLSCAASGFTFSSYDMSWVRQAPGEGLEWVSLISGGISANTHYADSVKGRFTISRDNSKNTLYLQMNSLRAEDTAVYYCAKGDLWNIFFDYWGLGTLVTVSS
VL: EIVLTQSPATLSVSPGERATFSCRASQNVRSYLAWYQQKPGQAPRLLIFNTVTRATGIPDRFSGSGSGTDFTLTISSLEPEDFAVYYCQQYYDWPPLTFGGGTKVEIK
notes: Tested as scFv-Fc (Expi293 supernatant)
B2: 40579p1.H11 (scFv, V domains shown)
VH: EVQLLESGGGLVQPGGSLRLSCAASGFTFDDYGMSWVRQAPGKGLEWVSAIRSKASSYATYYADSVKGRFTVSRDNSENTLYLQMNSLRAEDTAVYYCAKHRSNYYFMDVWGQGTTVTVSS
VL: EIVLTQSPGTLSLSPGERATLSCRASQSVGSDLAWYQQRPGQAPRLLIYAASSRATDIPDRFSGSGSGTDFTLTISSLQSEDFAVYYCQQYYSWPPLTFGGGTKVEIK
notes: as for B1
B3: 40579p1.D1 (scFv, V domains shown)
VH: EVQLLESGGGLVQPGGSLRLSCAASGFTFSDYYMSWVRQAPGKGLEWVSSISISYGGTTYYADSVKGRFTISRDNSKNTLYLQMNSLRAEDTAVYYCARDRSPYQCRSMDVWGQGTTVTVSS
VL: B2 VL with T10S, G30N, R39K, D57G, D60A, D70E, Y92N, S93N
notes: as for B1
B4: 40579p1.D8 (scFv, V domains shown)
VH: B3 VH
VL: EIVLTQSPGTLSLSPGERATLSCRASQSIRSDLAWYQQKPGQAPRLLIYNTVTRATGVPDRFSGSGSGTEFTLTISSLQSEDFAVYYCQQYNSWPPLTFGGGTKVEIK
notes: as for B1

The binders below were run against T1, His-tagged mouse B7-H3 (assay: ELISA, coated His-tagged antigen).

| Binder | binding result |
| --- | --- |
| B1 | no binding (tested: 1 ug/ml) |
| B2 | no binding (tested: 1 ug/ml) |

Target: T2, His-tagged cynomolgus monkey B7-H3
Experiment: ELISA, coated His-tagged antigen, scFv-Fc 1 ug/ml

| Binder | ELISA OD450 @ 1 ug/ml [OD450] |
| --- | --- |
| B1 | 2.34 |
| B2 | 0.769 |
| B3 | 1.33 |
| B4 | 1.87 |

Each binder was assayed against T3, His-tagged human B7-H3 (assay: ELISA, coated His-tagged antigen, scFv-Fc 1 ug/ml).

| Binder | ELISA OD450 @ 1 ug/ml [OD450] |
| --- | --- |
| B1 | 2.11 |
| B3 | 0.492 |
| B4 | 1.01 |

Each binder was assayed against T1, His-tagged mouse B7-H3 (assay: ELISA, coated His-tagged antigen, scFv-Fc 1 ug/ml).

| Binder | ELISA OD450 @ 1 ug/ml [OD450] |
| --- | --- |
| B1 | 0.055 |
| B2 | 0.051 |
| B3 | 0.283 |
| B4 | 0.48 |

Each binder was assayed against T3, His-tagged human B7-H3 (assay: ELISA OD450 on hu B7-H3 over OD450 on mu B7-H3).

| Binder | hu:mu ratio |
| --- | --- |
| B1 | 38.4 |
| B3 | 1.74 |
| B4 | 2.1 |

What follows are binders tested against T4, B7-H3 on B7-H3-expressing CHO cells … (assay: flow cytometry, B7-H3-expressing CHO cells, 10 ug/ml).
In short: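 Antibodies at 10 μg/ml in PBS/1% BSA/0.01% NaN3 incubated 60 min on ice with ~1.5e5 cells; parental CHO cells as counterscreen. After washing, read by flow cytometry; values are mean fluorescent intensities (MFI).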

| Binder | MFI @ 10 ug/ml [MFI] |
| --- | --- |
| B1 | 25400 |
| B2 | 11600 |
| B3 | 36000 |
| B4 | 40800 |
